Experiments:
endogenous PKCθ = test: IS localization in OT-II CD4+ T cells conjugated with Ova-loaded APCs (confocal); format: cell-based, mouse; conditions: OT-II TCR-Tg CD4+ T cells
Protocol: (FIG. 6A) OT-II CD4^+ T cells were infected with retrovirus expressing Myc-tagged V3 domain, V3 mutated at P330/1/4/6A (V3-4PA), or PR motif-deleted V3 (V3-ΔPR). Infected cells (green) were harvested, stimulated, and fixed. Conjugates were stained with anti-Myc plus a secondary Alexa 555-coupled antibody (orange), and anti-PKCθ plus a secondary Alexa 647-coupled antibody (red). Cells were analyzed as in FIG. 1A. (FIG. 6B) Quantitative analysis of the results shown in (FIG. 6A) from 30-50 T-APC conjugates. ** p<0.05. (FIG. 6C) MCC-specific T hybridoma cells were cotransfected with indicated vector, together with RE/AP-Luc and β-Gal reporter plasmids. Cells were stimulated and analyzed as in FIG. 1C. (FIG. 6D) Naïve CD4^+ T cells from B6 mice stimulated with anti-CD3 plus anti-CD28 mAbs and differentiated in vitro under Th1-, Th2- or Th17-polarizing conditions were retrovirally transduced with empty pMIG vector, or with the indicated PKCθ V3 vectors. Cytokine-producing cells were analyzed by intracellular staining 8 h after restimulation. Right panels represent cumulative data showing percentage of cytokine-producing cells by intracellular staining. (FIG. 6E) MCC-specific T hybridoma cells were cotransfected with the indicated plasmids, together with NFAT luciferase reporter and a β-Gal reporter plasmid. Cells were incubated with fibroblasts that express I-E^K and B7-1 in the absence or presence of MCC peptide for 6 hrs. Normalized luciferase activity was determined in triplicates.
Full-length human PKCθ and its derivatives were cloned as a GFP fusion protein in the pMX retroviral vector. Retroviral supernatants were used to infect preactivated CD4^+ T cells from PKCθ^−/− or WT OT-II mice. Transduced cells were rested for an additional three days. On the day of experiment, APC were prepared from WT B6 splenocytes that were depleted of CD4^+ T cells using anti-CD4 (L3T4) mAb-coated beads. T-depleted APC were stained with 20 μM of cell tracker blue (CMAC) and then pulsed with 5 μM Ova peptide, respectively, for 30 min at 37° C. T cell-APC conjugation was carried out at 37° C. for 20 min before fixation with 4% paraformaldehyde and permeabilization with PBS supplemented with 1% BSA and 0.1% Triton X-100. […] Immunofluorescene images were captured using a Marianas digital fluorescence-microscopy system (Intelligent Imaging Innovations) as described (Becart, S. et al. Immunity 29, 704-719 (2008)).
Given the critical role of the PKCθ V3 domain in the enzyme's CD28 association, IS localization, and activation of downstream targets, ectopic expression of the isolated V3 domain was analyzed for interference with the localization and function of PKCθ in stimulated T cells. […]

NFAT reporter gene = test: NFAT luciferase reporter assay in MCC-specific T hybridoma cells; format: cell-based
Protocol: (§1) (FIG. 6A) OT-II CD4^+ T cells were infected with retrovirus expressing Myc-tagged V3 domain, V3 mutated at P330/1/4/6A (V3-4PA), or PR motif-deleted V3 (V3-ΔPR). Infected cells (green) were harvested, stimulated, and fixed. Conjugates were stained with anti-Myc plus a secondary Alexa 555-coupled antibody (orange), and anti-PKCθ plus a secondary Alexa 647-coupled antibody (red). Cells were analyzed as in FIG. 1A. (FIG. 6B) Quantitative analysis of the results shown in (FIG. 6A) from 30-50 T-APC conjugates. ** p<0.05. (FIG. 6C) MCC-specific T hybridoma cells were cotransfected with indicated vector, together with RE/AP-Luc and β-Gal reporter plasmids. Cells were stimulated and analyzed as in FIG. 1C. […] Cytokine-producing cells were analyzed by intracellular staining 8 h after restimulation. […] Normalized luciferase activity was determined in triplicates.
(§2) The CD28 response element (RE/AP)- or NFAT-luciferase (Luc) reporter genes have been described (Coudronniere, N. et al. Proc Natl Acad Sci USA 97, 3394-3399 (2000)). […] The cells were the lysed and Luc activity was quantitated and normalized to the activity of a cotransfected β-galactosidase (β-Gal) reporter gene.
(§3) To determine whether ectopic V3 expression also interfered with PKCθ-dependent TCR/CD28 signaling, the effects of V3 on activation of reporter genes and on T cell differentiation into effector Th cells were analyzed. […]

[1] = test system: CD28 response element (RE/AP) reporter gene; test: RE/AP luciferase reporter assay in MCC-specific T hybridoma cells; format: cell-based
Protocol: as §1, §2, §3

[2] = test system: Th2-mediated lung inflammation; test: Th2-mediated Ova-induced airway inflammation after adoptive transfer of transduced OT-II Th2 cells; format: in vivo, mouse; conditions: transferred Th2 cells, aerosolized Ova 3 consecutive days
From the text: (FIG. 7A-7D) OT-II CD4^+ T cells stimulated with anti-CD3 plus anti-CD28 mAbs and differentiated in vitro under Th2 (FIG. 7A-7C) or Th1 (FIG. 7D, 7E)-polarizing conditions were retrovitrally transduced with the same PKCθ V3 vectors as in FIG. 6. Sorted GFP^+ populations were adoptively transferred into naïve B6 mice, which were challenged with aerosolized Ova for 3 consecutive days. BAL fluid were obtained 1 d post-challenge and analyzed for total mononuclear cell infiltration (FIG. 7A, 7D) and cytokine expression using IL-4 (FIG. 7B), IL-5 (FIG. 7C) and IFN-γ (FIG. 7E) ELISA.
CD4^+ T cells from OT-II B6 mice were isolated and cultured with plate-bound anti-CD3 (5 μg/ml), soluble anti-CD28 (2.5 μg/ml) and IL-2 (100 U/ml) under Th1 or Th2 polarizing conditions. The cells were retrovirally infected on days 2-4 and cultured for an additional 3 days. GFP^+ cells were sorted, and 1×10^6 cells were injected intravenously into naïve WT B6 mice. One day later, mice received aerosolized Ova (5 mg/ml in 20 ml PBS) for 30 min, once a day for 3 consecutive days, using ultrasonic nebulization. Mice were sacrificed 24 h after the last challenge and assessed for lung inflammation. Collection of BAL fluid and determination of cytokine levels were carried out as described (Salek-Ardakani, S. et al. J Immunol 173, 6440-6447 (2004)).
The above findings were extended to an in vivo antigen-specific inflammatory response in an airway inflammation model, using a T cell adoptive transfer system. Mice receiving OT-II Th2 cells transduced with an empty vector developed an inflammatory response by comparison with PBS-challenged control mice, as evidenced by a significant increase in the number of infiltrating leukocytes in the bronchoalveolar lavages (BAL) fluid (FIG. 7a) and in the levels of signature Th2 cytokines, IL-4 (FIG. 7b) and IL-5 (FIG. 7c).

[3] = coexpressed at increasing levels together with WT PKCθ

B1: V3 domain: amino acid 282-379 of human PKCθ with N-terminal Myc tag, expressed from pMIG retroviral vector (protein)
chain: GINQKLMAEALAMIESTQQARCLRDTEQIFREGPVEIGLPCSIKNEARPPCLPTPGKREPQGISWESPLDEVDKMCHLPEPELNKERPSLQIKLKIED
modifications: left off: small tags and cut ends
notes: amino acid 282-379 of human PKCθ with N-terminal Myc tag, expressed from pMIG retroviral vector
effect on IS localization of endogenous PKCθ (endogenous PKCθ): sequestered from the IS
subcellular localization of the transduced V3 protein (endogenous PKCθ): translocated to and selectively localized in the IS
inhibition of NFAT reporter gene activity stimulated by WT PKCθ (NFAT reporter gene; [3]): inhibited in a dose-dependent manner
activation of NFAT reporter gene (NFAT reporter gene; expression of the V3 alone): did not activate
inhibition of RE/AP reporter gene activity stimulated by WT PKCθ [1, 3]: inhibited in a dose-dependent manner
activation of RE/AP reporter gene ([1]; expression of the V3 alone): did not activate
levels of Th2 cytokines (IL-4, IL-5) in BAL fluid [2]: to basal levels
levels of infiltrating cells in BAL fluid [2]: to basal levels

— patent US20180335433A1, “COMPOSITIONS TARGETING PKC-THETA AND USES AND METHODS OF TREATING PKC-THETA PATHOLOGIES, ADVERSE IMMUNE RESPONSES AND DISEASES” (La Jolla Institute for Allergy and Immunology, priority 2011, published 2018)
